Source: publication PMC12416549 (2024)
Numbering of substitutions follows the chain as printed. Names may count otherwise.

T1: TNFR1 (Homo sapiens, UniProt P19438)
T1 chain: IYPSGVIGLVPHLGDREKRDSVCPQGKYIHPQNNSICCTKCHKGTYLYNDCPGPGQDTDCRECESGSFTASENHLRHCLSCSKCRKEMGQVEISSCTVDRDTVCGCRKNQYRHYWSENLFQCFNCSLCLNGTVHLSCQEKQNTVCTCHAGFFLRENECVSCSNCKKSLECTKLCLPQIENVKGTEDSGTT

B1: R65D (designed binder)
chain: SMEEEVEKAAKEYEKKKKEAIEKHLEKLKAKDKEAAERFLKELEEAAKEYAKDEAKTMSEEEAKDRAKKYKEKVLLSELSEEEQKEIKEAEEKLVRTILKYVEEAAK
B2: E37L (designed binder)
chain: B1 chain with E37L, D65R
B3: M58N (designed binder)
chain: B1 chain with M58N, D65R
B4: L76Q (designed binder)
chain: B1 chain with D65R, L76Q
B5: E42S (designed binder)
chain: B1 chain with E42S, D65R
B6: E5M (designed binder)
chain: B1 chain with E5M, D65R
B7: E83W (designed binder)
chain: B1 chain with D65R, E83W
B8: S80L (designed binder)
chain: B1 chain with D65R, S80L
B9: E86L (designed binder)
chain: B1 chain with D65R, E86L
B10: L43H (designed binder)
chain: B1 chain with L43H, D65R
B11: A51H (designed binder)
chain: B1 chain with A51H, D65R
B12: E92R (designed binder)
chain: B1 chain with D65R, E92R
B13: R65M (designed binder)
chain: B1 chain with D65M
B14: E72W (designed binder)
chain: B1 chain with D65R, E72W
B15: E81M (designed binder)
chain: B1 chain with D65R, E81M
B16: K107Q (designed binder)
chain: B1 chain with D65R, K107Q
B17: K52I (designed binder)
chain: B1 chain with K52I, D65R
B18: K15N (designed binder)
chain: B1 chain with K15N, D65R
B19: K100D (designed binder)
chain: B1 chain with D65R, K100D
B20: Q84C (designed binder)
chain: B1 chain with D65R, Q84C
B21: R38C (designed binder)
chain: B1 chain with R38C, D65R
B22: E4Q (designed binder)
chain: B1 chain with E4Q, D65R
B23: L75P (designed binder)
chain: B1 chain with D65R, L75P
B24: A67L (designed binder)
chain: B1 chain with D65R, A67L

Molecular target: T1, TNFR1
Experiment: yeast display SC50

Row | apparent Kd (screen) | Binder
1 | 0.405 nM | B1
2 | 0.869 nM | B2
3 | 13.8 nM | B3
4 | 1.86 nM | B4
5 | 7.78 nM | B5
6 | 0.446 nM | B6
7 | 2.25 nM | B7
8 | 0.539 nM | B8
9 | 1.4 nM | B9
10 | 3.63 nM | B10
11 | 0.49 nM | B11
12 | 11.4 nM | B12
13 | 0.956 nM | B13
14 | 0.446 nM | B14
15 | 0.539 nM | B15
16 | 1.16 nM | B16
17 | 0.446 nM | B17
18 | 0.539 nM | B18
19 | 2.48 nM | B19
20 | 4.83 nM | B20
21 | 2.25 nM | B21
22 | 0.446 nM | B22
23 | 3.99 nM | B23
24 | 7.78 nM | B24
